US20190127480A1 (Regeneron, published 2019)
Blank lines part the entries; values can stand above or below the binder they belong to.

What was measured:
[1] = target: T1, human PSMA on PSMA-expressing cells (human, UniProt Q04609 1-750); assay: FACS on 22RV1 cells
T1 construct: Cell line is named under assay or readout in each row; also called B16F10.9/hPSMA; B16F10.9/PSMA
Experimental: (§1) Briefly, 2×10⁵ cells/well of human CD3-expressing Jurkat, cynomolgus T, or human PSMA-specific expressing cells were incubated with a serial dilution of bispecific antibodies for 30 min at 4° C. After incubation, cells were washed and a goat F(ab′)₂ anti-human Fcγ PE labeled secondary (Jackson Immunolabs) was added to the cells for an additional 30 min. Next, cells were washed, re-suspended in cold PBS+1% BSA and analyzed via flow cytometry on a BD FACS Canto II.
(§2) For FACS analysis, cells were gated by forward scatter height vs. forward scatter area for single events selection, followed by side and forward scatters. The EC₅₀ for cell binding titration was determined using Prism software. Values were calculated using 4-parameter non-linear regression analysis.

[2] = target: T2, human CD3 on CD3-expressing cells (Jurkat, human T cells) (human, UniProt P07766 23-207; P04234 22-171); assay: FACS on Jurkat cells
T2 construct: On cells CD3 stands within the T cell receptor complex (also gamma and zeta chains); also called human CD3 expressing Jurkat cells
Experimental: as §1, §2

[3] = target: T3, cynomolgus CD3 on cynomolgus T cells (cynomolgus, UniProt Q95LI5 22-198; Q95LI8 22-171); assay: FACS titration of cynomolgus T cells
T3 construct: whole, on cells; also called Cyno T-cells; monkey T-cells

[4] = target: T2, human CD3 on CD3-expressing cells …; assay: FACS titration of Jurkat cells
[5] = target: T4, human PSMA expressed with an N-terminal hexahistidine tag (6h.hPSMA, R&D) (human, UniProt Q04609 44-750); assay: SPR Biacore T-200, 37 C, antibody-capture (anti-mouse Fc), 6h.hPSMA as analyte
T4 construct: Bought soluble protein; also called soluble human PSMA; human PSMA protein
Experimental: Briefly, a CM5 Biacore™ sensor surface was derivatized via amine coupling with a monoclonal mouse anti-human Fc antibody (GE, # BR-1008-39) or monoclonal goat anti-mouse Fc antibody (GE, # BR-1008-38) to capture purified anti-PSMA antibodies. Binding studies were performed in HBSP++ buffer composed of 0.01M HEPES, 0.15M NaCl, 2 mM Ca²⁺, 2 mM Mg²⁺, 0.05% v/v Surfactant P20, pH7.4. Varying concentrations of human PSMA expressed with an N-terminal hexahistidine tag (6h.hPSMA, R&D) prepared in HBSP++ running buffer (ranging from 50 to 0.78 nM, 4-fold dilutions) were injected over the anti-PSMA antibody captured surface at a flow rate of 30 μL/minute. Antibody-reagent association was monitored for 2 minutes while dissociation in HBSP++ running buffer was monitored for 8 minutes.
Kinetic association (kₐ) and dissociation (kd) rate constants were determined by fitting the real-time sensorgrams to a 1:1 binding model using Scrubber 2.0c curve fitting software. Binding dissociation equilibrium constants (KD) and dissociative half-lives (t½) were calculated from the kinetic rate constants as: KD (M)=kd/kₐ; and t_{1/2} (min)=(ln 2/(60*kd).

[6] = target: human CD3 expressed on cells (Jurkat cells; human T-cells of PBMC) (human, UniProt P09693 23-182; P20963 22-164); assay: cell-based or functional assay
[7] = target: T5, cynomolgus monkey CD3 expressed on monkey T-cells (PBMCs) (cynomolgus monkey, UniProt Q95LI5 22-198; Q95LI8 22-171); assay: FACS titration on monkey PBMCs, gated on CD2+CD4+ T cells
T5 construct: whole, on cells; Native CD3 on monkey T cells; gamma and zeta chains are also part of CD3 on cells; also called monkey PBMCs; mfPBMC
Experimental: FACS data was acquired using the following protocol: Cells at 2×10⁵ per well were incubated with serially diluted antibodies for 30 min on ice. Post incubation, cells were washed and secondary antibodies were added and incubated for an additional 30 minutes. After incubation, cells were washed, re-suspended in cold PBS containing 1% BSA and analyzed by flow cytometry. CD4+ monkey T cells were gated by side and forward scatters, and on the CD2+CD4+CD20− population. The EC₅₀s for cell binding titration were calculated using a 4-parameter non-linear regression analysis in GraphPad Prism.

[8] = target: T5, cynomolgus monkey CD3 expressed on …; assay: cell-based or functional assay

T5 sequence (Q95LI5 22-198, chain 1 of 2): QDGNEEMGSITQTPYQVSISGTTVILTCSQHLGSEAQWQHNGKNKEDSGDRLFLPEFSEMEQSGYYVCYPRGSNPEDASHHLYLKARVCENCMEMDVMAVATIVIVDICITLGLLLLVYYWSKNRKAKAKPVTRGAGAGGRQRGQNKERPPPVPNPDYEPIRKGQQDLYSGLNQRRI
T5 sequence (Q95LI8 22-171, chain 2 of 2): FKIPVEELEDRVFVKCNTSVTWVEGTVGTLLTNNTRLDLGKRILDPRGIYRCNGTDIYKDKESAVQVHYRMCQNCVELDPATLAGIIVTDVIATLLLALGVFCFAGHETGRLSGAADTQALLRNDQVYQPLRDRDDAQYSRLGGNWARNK
T4 sequence (Q04609 other isoform, or with tags, fused parts or gaps limits assumed): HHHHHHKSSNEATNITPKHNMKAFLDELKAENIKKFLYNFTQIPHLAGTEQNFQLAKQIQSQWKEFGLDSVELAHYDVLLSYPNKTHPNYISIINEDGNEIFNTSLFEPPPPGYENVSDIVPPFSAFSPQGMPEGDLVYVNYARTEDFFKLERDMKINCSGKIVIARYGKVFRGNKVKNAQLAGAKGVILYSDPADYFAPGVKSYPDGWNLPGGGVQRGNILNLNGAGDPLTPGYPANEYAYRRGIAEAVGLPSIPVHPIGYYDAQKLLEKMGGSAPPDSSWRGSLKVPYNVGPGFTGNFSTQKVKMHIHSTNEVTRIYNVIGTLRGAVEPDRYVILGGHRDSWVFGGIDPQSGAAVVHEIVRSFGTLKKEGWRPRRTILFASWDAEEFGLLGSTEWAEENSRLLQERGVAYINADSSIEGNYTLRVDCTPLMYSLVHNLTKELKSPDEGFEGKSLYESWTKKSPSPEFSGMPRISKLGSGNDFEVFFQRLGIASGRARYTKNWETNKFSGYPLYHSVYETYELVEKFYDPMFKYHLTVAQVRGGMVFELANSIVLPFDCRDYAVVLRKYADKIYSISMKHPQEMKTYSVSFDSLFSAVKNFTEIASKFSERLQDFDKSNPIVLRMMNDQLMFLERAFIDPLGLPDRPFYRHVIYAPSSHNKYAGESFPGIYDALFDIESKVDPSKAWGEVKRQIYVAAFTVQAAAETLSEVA
T2 sequence (P07766 23-207 limits assumed, chain 1 of 2): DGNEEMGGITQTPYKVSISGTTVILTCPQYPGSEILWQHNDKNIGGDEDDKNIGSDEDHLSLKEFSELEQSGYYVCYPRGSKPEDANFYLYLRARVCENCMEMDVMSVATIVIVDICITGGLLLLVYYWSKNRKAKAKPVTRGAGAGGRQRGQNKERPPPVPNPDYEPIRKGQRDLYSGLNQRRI
T2 sequence (P04234 22-171 limits assumed, chain 2 of 2): as the sequence (Q95LI8 22-171, chain 2 of 2) above, with V5I, K15N, V20I, T32S, N33D, N34I, A64T, N74S, L83V, R141H counted along it
Chain of human CD3 expressed on cells (Jurkat cells; human T-cells of PBMC) (chain, as listed by the source, chain 1 of 4): as the sequence (P07766 23-207 limits assumed, chain 1 of 2) above
Chain of human CD3 expressed on cells (Jurkat cells; human T-cells of PBMC) (chain, as listed by the source, chain 2 of 4): as the sequence (Q95LI8 22-171, chain 2 of 2) above, with V5I, K15N, V20I, T32S, N33D, N34I, A64T, N74S, L83V, R141H counted along it
Chain of human CD3 expressed on cells (Jurkat cells; human T-cells of PBMC) (P09693 23-182, chain 3 of 4): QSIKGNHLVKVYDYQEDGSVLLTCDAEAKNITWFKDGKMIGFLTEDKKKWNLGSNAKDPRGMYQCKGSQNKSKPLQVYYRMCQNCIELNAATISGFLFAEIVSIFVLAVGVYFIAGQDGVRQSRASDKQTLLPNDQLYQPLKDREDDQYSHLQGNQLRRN
Chain of human CD3 expressed on cells (Jurkat cells; human T-cells of PBMC) (P20963 22-164, chain 4 of 4): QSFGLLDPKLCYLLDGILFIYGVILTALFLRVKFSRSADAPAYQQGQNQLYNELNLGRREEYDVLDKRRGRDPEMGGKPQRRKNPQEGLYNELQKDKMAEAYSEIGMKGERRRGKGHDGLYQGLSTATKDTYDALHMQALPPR
T3 sequence (Q95LI5 22-198, form in doubt, chain 1 of 2): as the sequence (Q95LI5 22-198, chain 1 of 2) above
T3 sequence (Q95LI8 22-171, form in doubt, chain 2 of 2): as the sequence (Q95LI8 22-171, chain 2 of 2) above
T1 sequence (Q04609 whole entry): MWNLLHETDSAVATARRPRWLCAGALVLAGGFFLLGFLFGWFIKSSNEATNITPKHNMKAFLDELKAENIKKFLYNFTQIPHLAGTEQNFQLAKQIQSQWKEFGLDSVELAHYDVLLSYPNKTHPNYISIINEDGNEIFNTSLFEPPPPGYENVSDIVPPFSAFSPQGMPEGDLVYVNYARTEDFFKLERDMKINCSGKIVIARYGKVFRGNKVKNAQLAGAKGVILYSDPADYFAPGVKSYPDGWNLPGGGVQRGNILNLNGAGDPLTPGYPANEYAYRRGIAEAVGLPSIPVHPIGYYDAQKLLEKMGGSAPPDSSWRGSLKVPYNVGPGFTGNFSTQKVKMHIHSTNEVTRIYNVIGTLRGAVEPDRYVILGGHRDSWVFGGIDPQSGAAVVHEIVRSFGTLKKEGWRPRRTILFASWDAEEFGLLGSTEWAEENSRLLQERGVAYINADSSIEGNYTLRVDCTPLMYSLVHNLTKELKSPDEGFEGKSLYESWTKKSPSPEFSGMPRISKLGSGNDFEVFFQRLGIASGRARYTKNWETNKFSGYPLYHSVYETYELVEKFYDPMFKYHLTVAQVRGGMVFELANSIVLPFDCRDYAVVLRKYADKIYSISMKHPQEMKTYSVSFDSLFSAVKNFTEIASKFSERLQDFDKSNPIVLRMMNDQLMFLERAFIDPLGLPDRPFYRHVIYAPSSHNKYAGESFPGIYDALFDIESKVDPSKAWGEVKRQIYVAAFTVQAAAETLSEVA

EC50 [1]: 78.5 nM | EC50 [2]: 39.1 nM
B1: BSPSMA/CD3-001 (bispecific antibody, IgG4, V domains shown)
VH 1: QVQLVESGGGVVQPGRSLRLSCAASGFTFITYGMHWVRQAPGKGLEWVAIIYYDESNKYYADSVKGRFTISRDISKNTLYLQMNGLRAEDTAVYYCARAPRVAVEEDYSYYYGMDVWGQGTTVTVSS
VH 2: EVQLVESGGGLVQPGRSLRLSCVASGFTFADFTMHWVRQAPGKGLEWVSGISWNSNSIDYADSVKGRFTISRDNAKKSLFLQMSSLRAEDTALYYCVKDRSGYSRFYYGMDVWGQGTTVTVSS
VL: EIVMTQSPATLSVSPGERAILSCRASQNINSNLAWYQQKPGQAPRLLIYGASTRATGVPARFSGSGSGTEFTLTIRSLQSEDFAVYYCQQYYNWPITFGHGTRLEIK
notes: modified (chimeric) IgG4 Fc domain as in US20140243504A1; also called PSMA-VH-3465 x CD3-VH-A, CD3-VL-A

EC50 [3]: 1 to 40 nM | EC50 [4]: 1 to 40 nM
B2: CD3-VH-P (antibody, V domains shown)
VH: EVQLVESGGGLVQPGRSLRLSCVASGFTFDDYSMHWVRQAPGKGLEWVSGISWNSGSKDYADSVKGRFTISRDNAKNSLYLQMNSLRAEDTALYYCAKYGSGYGKFYHYGLDVWGQGTTVTVSS
VL: DIQMTQSPSSLSASVGDSVTITCRASQSINNYLNWYQQKPGKAPKLLIYTASSLLSGVPSRFSGSGSGTDFTLTISGLHPEDFATYFCQQSFSTPPITFGQGTRLDIK
notes: also called CD3 antibody designated CD3-VH-P

Kd [5]: 25.8 nM | koff [5]: 0.00406 s⁻¹ | kon [5]: 157000 M⁻¹ s⁻¹ | t1/2 [5]: 2.8 min
B3: H1M11900N (antibody, mouse IgG1, V domains shown)
VH: EVQLVESGGALVQTGGSLRLSCVASGFTFSNYWMSWVRQSPGKGLQWVASIKKDGSDEDYVDSVKGRFTISRDNAENSLYLQMTSLRIEDTAVYYCARFISAVGVDWGQGALVTVSS
VL: B2 VL
notes: human variable / mouse constant region (H1M: mouse IgG1 Fc)

EC50 [7]: 0.112 nM
B4: H2M3547N (antibody, mouse IgG2, V domains shown)
VH: EAQLVESGGGLVQPGRSLRLSCTTSGFTFDDYTMHWVRQAPGKGLEWISDISWNGGTKGYADSVKGRFTISRDNAKNSLYLQMDSLRGEDTALYYCVKDKSGYGHFYFGLDVWGQGTTVTVSS
VL: DIQMTQSPSSLTASVGDRVTFTCRASQSISRHLSWYQQKPGKAPKLLIYAASSLESGVPSRFSGSGSGTDFTLTISSLHPEDFATYYCQQSYSNPPITFGQGTRLEIK
notes: H2M: human variable regions, mouse IgG2 Fc
U937 Cytotoxicity Human T-cells [6]: 31.7 pM

EC50 [M] mfPBMC Proliferation [8]: 2.72e-12 M | EC50 [7]: 2.29 nM
B5: H1H2712N (antibody, human IgG1, V domains shown)
VH: EVQLVESGGGLVQPGGSLRLSCAATGFTFDDFTMHWVRQAPGKGLEWVSGISWNSGSIGYVDSVKGRFTISRDNAKNSLYLQMNSLRAEDTALYYCAKDNSGYGYYYYGMDVWGQGTTVTVSS
VL: EIVMTQSPATLSVSPGERATLSCRASHSVSRNSAWYQQKPGQAPRLLIYGASTRATGIPARFSGSGSGTEFTLTISSLQSEDFAIYYCQQYNNWPLTFGGGTKVEIK
notes: H1H: human IgG1 Fc

EC50 [7]: 0.165 nM
B6: H2M3563N (antibody, mouse IgG2, V domains shown)
VH: EVHLVESGGGLVQPGRSLRLSCAASGFTFDDYTMHWVRQAPGKGLEWVSDISWNSGSIGYADSVKGRFTVSRDNAKNSLYLQMNSLRGEDTALYYCAKDMSGYGHYGKYGMDVWGQGTTVTVSS
VL: DIQMTQSPSSLSASVGDRVTITCRASQSIRSYLNWYQQKPGKVPKLLIYAASSLQSGVPSRFSGSGSGTDFTLTINSLQPDDFATYYCQQTYSNPPITFGQGTRLEIK
notes: as for B4
U937 Cytotoxicity Human T-cells [6]: 40.5 pM
